Source: PMC7570391, “Cyclic Di-adenosine Monophosphate Regulates Metabolism and Growth in the Oral Commensal Streptococcus mitis” (Microorganisms, 2020)

How the values were obtained:
[1] = molecular target: CdaA_(103–285), truncated S. mitis CdaA-type diadenylate cyclase (SM12261_1351) lacking the transmembrane helices (Streptococcus mitis CCUG 31611); experiment: SEC; Superose 6 Increase 10/300 GL on an ÄKTA Pure 25; SEC buffer 1x PBS pH 7.4 with 10% glycerol; apparent molecular weight from vE/v0 against gel filtration markers (12,000-200,000 Da)
[2] = tested on: [H][C@@]1(O)[C@]2([H])OP(=O)(O)OC[C@@]3([H])O[C@@]([H])(n4cnc5c(N)ncnc54)[C@]([H])(O)[C@]3([H])OP(=O)(O)OC[C@@]2([H])O[C@@]1([H])n1cnc2c(N)ncnc21; experiment: purified protein; conditions: 1 mM MnCl2, 50 mM Tris-HCl pH 7.5, 37 °C, 2.5 μM enzyme, product pApA
From the text: pApA formation, reversed-phase HPLC, Michaelis-Menten fit on Pde1_53–657

[3] = tested on: Nc1ncnc2c1ncn2[C@@H]1O[C@H](COP(=O)(O)O[C@H]2[C@@H](O)[C@H](n3cnc4c(N)ncnc43)O[C@@H]2COP(=O)(O)O)[C@@H](O)[C@H]1O; experiment: purified protein; conditions: 1 mM MnCl2, 50 mM Tris-HCl pH 7.5, 37 °C, 5 μM enzyme, product AMP
From the text: AMP formation, reversed-phase HPLC, Michaelis-Menten fit on Pde1_53–657

[4] = molecular target: Pde2, full-length S. mitis DhhP-type phosphodiesterase (SM12261_1122) (Streptococcus mitis CCUG 31611); experiment: SEC; Superose 6 Increase 10/300 GL on an ÄKTA Pure 25; SEC buffer 1x PBS pH 7.4 with 10% glycerol; apparent molecular weight from vE/v0 against gel filtration markers (12,000-200,000 Da)
[5] = substrate: [H][C@@]1(O)[C@]2([H])OP(=O)(O)OC[C@@]3([H])O[C@@]([H])(n4cnc5c(N)ncnc54)[C@]([H])(O)[C@]3([H])OP(=O)(O)OC[C@@]2([H])O[C@@]1([H])n1cnc2c(N)ncnc21; experiment: AMP formation, reversed-phase HPLC, Michaelis-Menten fit; assay type: biochemical, Streptococcus mitis; conditions: 1 mM MnCl2, 50 mM Tris-HCl pH 8.5, 37 °C, 10 μM enzyme, product AMP
From the text: (§1) AMP formation, reversed-phase HPLC, Michaelis-Menten fit on Pde2

[6] = substrate: Nc1ncnc2c1ncn2[C@@H]1O[C@H](COP(=O)(O)O[C@H]2[C@@H](O)[C@H](n3cnc4c(N)ncnc43)O[C@@H]2COP(=O)(O)O)[C@@H](O)[C@H]1O; experiment: as above; assay type: biochemical, Streptococcus mitis; conditions: 1 mM MnCl2, 50 mM Tris-HCl pH 8.5, 37 °C, 0.05 μM enzyme, product AMP
From the text: as §1

## CdaA_(103–285), truncated S. mitis CdaA-type diadenylate cyclase (SM12261_1351) lacking the transmembrane helices (domain or fragment)
[1]
  stoichiometry N: 2

## Pde1_53–657 (Streptococcus mitis NCTC 12261)
[2]
  Km: 241.3 ± 11.6 µM
  Vmax: 621 µM/min
  kcat: 4.14 ± 1.99 s⁻¹
  kcat/Km: 17000 M⁻¹ s⁻¹
[3]
  Km: 152.4 ± 03.6 µM
  Vmax: 748 µM/min
  kcat: 2.49 ± 0.61 s⁻¹
  kcat/Km: 16400 M⁻¹ s⁻¹

## Pde2, full-length S. mitis DhhP-type phosphodiesterase (SM12261_1122) (enzyme)
[4]
  stoichiometry N: 2

B1: Pde2 (Streptococcus mitis NCTC 12261) (protein)
chain: MDICHQILEKIKEYDTIIIHRHMKPDPDALGSQVGLKALLKHHFPEKTIKAVGFDEPTLTWMAEMDLVEDSAYQGALVIVCDTANTARIDDKRYSQGDFLIKIDHHPNDDVYGDLSWVDTSSSSASEMITLFAQTTQLALSDRAAELLFAGIIGDTGRFLYPSTTERTLRLAAYLREHNFDFAALTRKMDTMSYKIAKLQGYIYDHLEVDENGAARVILSQEILKRFNVTDAETAAIVGAPGRIDSVSLWGIFVEQADGHYRVRLRSKIHPINEIAKEHDGGGHPLASGANSYSLEENEIIYQKLKNLLKN
[5]
  Km: 148.5 ± 34.8 µM
  Vmax: 46.8 µM/min
  kcat: 0.078 ± 0.005 s⁻¹
  kcat/Km: 525 M⁻¹ s⁻¹
[6]
  Km: 877 ± 312 µM
  Vmax: 10600 µM/min
  kcat: 3530 ± 623 s⁻¹
  kcat/Km: 4.02e+06 M⁻¹ s⁻¹
